From patent US20030113292A1, “Methods of treating viral diseases with il-18 and il-18 combinations” (priority 2000, published 2003)

B1: murine IL-18: murine IL-18, amino acid sequence SEQ ID NO:2; interferon-γ-inducing factor cytokine (protein, listed as Mus musculus)
chain: NFGRLHCTTAVIRNINDQVLFVDKRQPVFEDMTDIDQSASEPQTRLIIYMYKDSEVRGLAVTLSVKDSKMSTLSCKNKIISFEEMDPPENIDDIQSDLIFFQKRVPGHNKMEFESSLYEGHFLACQKEDDAFKLILKKKDENGDKSVMFTLTNLHQS

What was measured:
Chimpanzee PBMCs = test: Mediator induction in chimpanzee PBMCs (ELISA of supernatants); assay type: cell-based
Description: Chimpanzee or human PBMCs were isolated and treated with either control media, human IL-18 at 100 ng/ml, or IL-18 (100 ng/ml) in combination with IL-2 at 3 ng/ml. Supernatants were frozen following incubation for 24, 48, 72, or 96 hours. Mediator levels were analyzed by ELISA. […] Moreover there is synergy between IL-2 and IL-18 at inducing GM-CSF, IL-8, Neopterin, and IFN-gamma (FIGS. 9 and 10). These observations were confirmed in multiple chimp and human donors.
The highest protein levels were detected in samples obtained 96 hours post-treatment, with the exception of IFN-gamma that reached a maximum level at 24 hours.
In this study, treatment with IL-2 alone was used as control.

HSV-1 (SC-16) = test: Lethal systemic HSV infection model; assay type: in vivo, mice
Description: Several studies evaluated the effect of murine IL-18 in a lethal systemic HSV infection model. Murine IL-18 was administered IP at −2 hours, 24 hours, and 48 hours following IP infection with HSV-1 (SC-16). IL-18 treatment at 10-ug/mouse lead to 40% survival in all studies, relative to no survival of vehicle treated animals (FIG. 5). […] In a single study, two daily doses of IL-18 at 100 ug/mouse lead to 70% survival (not shown).

[1] = test system: GM-CSF, IFN-gamma, and TNF mRNA; test: Cytokine mRNA induction in spleens of uninfected mice (quantitative real-time PCR); assay type: in vivo, Female Balb/C mice
Hepatitis B Virus (HBV) = test: HBV transgenic mice, liver HBV DNA by Southern blot; assay type: in vivo; conditions: Day 3
Description: HBV transgenic mice (Guidotti et. al, 1995. J. Virol 69:6158-6169) were treated with three daily subcutaneous injections (Days 0, 1 and 2) of 4 different doses (100, 10, 1 and 0.1 microgram) of recombinant murine IL-18, with analysis of the liver for HBV DNA on Day 3 by Southern blot.

TNF-α, IFN-γ, and GM-CSF = test: Cytokine protein induction in uninfected mice (ELISA of sera and spleen homogenates); assay type: in vivo, Female Balb/C mice
[2] = post-treatment, IL-18 100 ng/ml

Row | Molecule | IL-8 induction (Chimpanzee PBMCs; IL-18 100 ng/ml, FIG. 9(a), donor species of FIG. 9 not given) | Neopterin induction (Chimpanzee PBMCs; IL-18 100 ng/ml, FIG. 9(b), donor species of FIG. 9 not given) | GM-CSF induction (Chimpanzee PBMCs; IL-18 100 ng/ml, FIG. 9(c), donor species of FIG. 9 not given) | IFN-gamma induction (Chimpanzee PBMCs; IL-18 100 ng/ml, FIG. 9(d), donor species of FIG. 9 not given) | inducing cytokine expression in chimp PBMCs (Chimpanzee PBMCs; human IL-18 100 ng/ml, 24-96 hours) | time of highest protein levels (IL-8, Neopterin, GM-CSF) (Chimpanzee PBMCs; [2]) | time of maximum IFN-gamma level (Chimpanzee PBMCs; [2]) | survival (HSV-1 (SC-16); 10-ug/mouse IP at -2, 24 and 48 hours, vehicle: no survival) | time to death (HSV-1 (SC-16); all studies) | survival (HSV-1 (SC-16); two daily doses at 100 ug/mouse, single study, not shown) | IFN γ mRNA induction over vehicle ([1]; 2.5-6 hours post injection, real-time PCR, spleen) | TNF mRNA induction ([1]; quantitative real-time PCR) | GM-CSF mRNA induction relative to vehicle control ([1]; real-time PCR, data not shown) | reduction of liver HBV DNA at lowest dose (Hepatitis B Virus (HBV); 0.1 micrograms sc Days 0, 1, 2) | reduction of liver HBV DNA at higher doses (Hepatitis B Virus (HBV); 1, 10, 100 microgram sc Days 0, 1, 2) | virus replication (levels of viral DNA in liver) (Hepatitis B Virus (HBV); three daily sc injections, 100, 10, 1 and 0.1 microgram) | induction of GM-CSF protein (TNF-α, IFN-γ, and GM-CSF; IP 10 or 100 ug) | IFN levels in sera and spleens (TNF-α, IFN-γ, and GM-CSF; IP 10 or 100 ug murine IL-18, by 2.5 hours post-treatment) | induction of TNF-α protein (TNF-α, IFN-γ, and GM-CSF; IP 10 or 100 ug, called minimal induction)
1 | human IL-18: human IL-18, amino acid sequence SEQ ID NO:1; 157 amino acid cytokine, interferon-γ-inducing factor | 14 fold | 7 fold | 100 fold | 8 fold | active | 96 h | 24 h | – | – | – | – | – | – | – | – | – | – | – | –
2 | B1 | – | – | – | – | – | – | – | 40% | delay in time to death | 70% | up to 20 fold | observed | 6-10 fold | some reduction | greater reductions | dose-dependent reduction | no induction | 2 ng/mL | 100 pg/mL
